System: 41-mer peptide substrate (41-PS), QTVTWPDMELPLPRNITEGE-ARGSVILTVKPIFEVSPSPL-(BIOTINYL)K

aggrecan degrading metallo protease (ADMP)
cleavage of 41-PS to the 21-mer product, HPLC assay: Effect of incubation time was evaluated and found to be linear over the timecourse of the assay

Reference: patent US7223834
